In patent US20150104448A1 (TRUE NORTH THERAPEUTICS, published 2015):
Where a chain is given by its changes, count along the chain named.

T1: purified human activated C1s protein, two-chain form (Homo sapiens, UniProt P09871 16-688)
T1 construct: Also used here for C1s acting in human serum assays; also called human C1s; active C1s
T1 sequence: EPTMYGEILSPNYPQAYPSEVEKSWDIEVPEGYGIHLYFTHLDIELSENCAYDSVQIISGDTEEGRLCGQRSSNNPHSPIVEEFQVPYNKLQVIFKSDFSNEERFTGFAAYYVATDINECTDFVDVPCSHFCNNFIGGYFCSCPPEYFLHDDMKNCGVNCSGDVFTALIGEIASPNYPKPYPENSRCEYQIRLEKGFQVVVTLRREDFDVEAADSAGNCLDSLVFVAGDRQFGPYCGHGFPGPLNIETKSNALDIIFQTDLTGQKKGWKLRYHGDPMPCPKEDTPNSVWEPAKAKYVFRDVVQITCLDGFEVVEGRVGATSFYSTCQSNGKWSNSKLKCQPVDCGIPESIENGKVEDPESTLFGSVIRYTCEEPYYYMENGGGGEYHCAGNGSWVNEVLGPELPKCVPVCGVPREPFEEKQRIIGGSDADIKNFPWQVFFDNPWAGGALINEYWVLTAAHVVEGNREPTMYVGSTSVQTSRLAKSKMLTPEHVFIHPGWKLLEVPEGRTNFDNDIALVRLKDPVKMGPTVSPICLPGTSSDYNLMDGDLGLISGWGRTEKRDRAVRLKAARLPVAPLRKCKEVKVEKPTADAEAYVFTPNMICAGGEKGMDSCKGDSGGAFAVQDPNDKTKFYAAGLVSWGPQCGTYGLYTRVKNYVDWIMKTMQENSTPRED

T2: Inactive-C1s (Homo sapiens, UniProt P09871)
T2 construct: proenzyme (pro-C1s); also called pro-C1s
T2 sequence (single chain, looked up): T1 sequence

B1: VH1/Vk2 (antibody, V domains shown)
VH: EVMLVESGGGLVKPGGSLRLSCAASGFTFSNYAMSWVRQAPGKGLEWVATISSGGSHTYYLDSVKGRFTISRDNSKDTLYLQMSSLRAEDTALYYCARLFTGYAMDYWGQGTSVTVSS
VL: QIVLTQSPATLSLSPGERATMSCTASSSVSSSYLHWYQQKPGKAPKLWIYSTSNLASGVPSRFSGSGSGTDYTLTISSLQPEDFATYYCHQYYRLPPITFGQGTKLEIK
notes: member of group m7; also called VH1/Vκ2; VH variant 1 + Vk variant 2
B2: VH3/Vk2 (antibody, V domains shown)
VH: B1 VH
VL: B1 VL
notes: member of group m7; also called VH3/Vκ2; VH variant 3 + Vk variant 2
B3: VH2/Vk1 (antibody, V domains shown)
VH: B1 VH with S84N, S113L
VL: B1 VL with T10I, D71F, P81A
notes: member of group m7; also called VH2/Vκ1; VH variant 2 + Vk variant 1
B4: VH4/Vk3 (antibody, V domains shown)
VH: B1 VH with M3Q, D77N, S84N, S113L
VL: B1 VL with M21L
notes: member of group m7; also called VH4/Vκ3; VH variant 4 + Vk variant 3
B5: VH3/Vk3 (antibody, V domains shown)
VH: B1 VH
VL: B1 VL with M21L
notes: member of group m7; also called VH3/Vκ3; VH variant 3 + Vk variant 3
B6: VH1/Vk1 (antibody, V domains shown)
VH: B1 VH
VL: B1 VL with T10I, D71F, P81A
notes: member of group m7; also called VH1/Vκ1; VH variant 1 + Vk variant 1
B7: VH2/Vk3 (antibody, V domains shown)
VH: B1 VH with S84N, S113L
VL: B1 VL with M21L
notes: member of group m7; also called VH2/Vκ3; VH variant 2 + Vk variant 3
B8: VH2/Vk2 (antibody, V domains shown)
VH: B1 VH with S84N, S113L
VL: B1 VL
notes: member of group m7; also called VH2/Vκ2; VH variant 2 + Vk variant 2
B9: VH3/Vk1 (antibody, V domains shown)
VH: B1 VH
VL: B1 VL with T10I, D71F, P81A
notes: member of group m7; also called VH3/Vκ1; VH variant 3 + Vk variant 1
B10: VH4/Vk1 (antibody, V domains shown)
VH: B1 VH with M3Q, D77N, S84N, S113L
VL: B1 VL with T10I, D71F, P81A
notes: member of group m7; also called VH4/Vκ1; VH variant 4 + Vk variant 1
B11: VH4/Vk2 (antibody, V domains shown)
VH: B1 VH with M3Q, D77N, S84N, S113L
VL: B1 VL
notes: member of group m7; also called VH4/Vκ2; VH variant 4 + Vk variant 2
B12: VH1/Vk3 (antibody, V domains shown)
VH: B1 VH
VL: B1 VL with M21L
notes: member of group m7; also called VH1/Vκ3; VH variant 1 + Vk variant 3

Experiments:
[1] = target: T1, purified human activated C1s protein, …; experiment: kinetic binding measurement, method not stated; Table 9, activated C1s
Inactive-C1s = target: T2, Inactive-C1s; experiment: kinetic binding measurement, method not stated; Table 10, pro-C1s

Row | Binder | Kd [1] [nM] | koff [1] [s⁻¹] | kon [1] [M⁻¹ s⁻¹] | Kd (Inactive-C1s) [nM] | koff (Inactive-C1s) [s⁻¹] | kon (Inactive-C1s) [M⁻¹ s⁻¹]
1 | B1 | 0.262 | 0.000274 | 1.05e+06 | 0.229 | 0.000249 | 1.09e+06
2 | B2 | 0.274 | 0.000311 | 1.13e+06 | 0.291 | 0.000315 | 1.08e+06
3 | B3 | 0.256 | 0.000274 | 1.07e+06 | 0.252 | 0.000262 | 1.04e+06
4 | B4 | 0.298 | 0.00031 | 1.04e+06 | 0.278 | 0.000306 | 1.1e+06
5 | B5 | 0.335 | 0.00036 | 1.08e+06 | 0.331 | 0.000351 | 1.06e+06
6 | B6 | 0.235 | 0.000228 | 973000 | 0.191 | 0.000198 | 1.04e+06
7 | B7 | 0.296 | 0.000281 | 948000 | 0.284 | 0.000275 | 968000
8 | B8 | 0.273 | 0.00028 | 1.03e+06 | 0.271 | 0.000269 | 993000
9 | B9 | 0.246 | 0.000254 | 1.03e+06 | 0.252 | 0.000255 | 1.02e+06
10 | B10 | 0.228 | 0.000271 | 1.19e+06 | 0.291 | 0.000319 | 1.1e+06
11 | B11 | 0.262 | 0.000264 | 1e+06 | 0.262 | 0.000263 | 1.01e+06
12 | B12 | 0.376 | 0.000343 | 914000 | 0.303 | 0.000285 | 941000
